Ends that are not written are not given here.
Legend:
[1] = biological target: T1, Bqt4_(2–140), N-terminal domain of Bqt4 (S. pombe, UniProt O60158 2-140); experiment: ITC; ITC200; peptide (Rap1 479-527 at 1000–1500 μM) titrated into Bqt4 2-140 (100–150 μM), 20°C, 20 mM Tris–HCl pH 8.0, 150 mM NaCl; one binding site model; two independent experiments; settings: both partners purified
T1 construct: Bqt4, S. pombe inner nuclear membrane protein, residues 2-140; also called Bqt4NTD; Bqt4NTD^WT; source: E. coli BL21(DE3), purified (Ni-NTA, on-beads Ulp1 digestion, Superdex200); not shown: His6, N-terminal, cleaved; SUMO, N-terminal, cleaved
T1 sequence (looked up): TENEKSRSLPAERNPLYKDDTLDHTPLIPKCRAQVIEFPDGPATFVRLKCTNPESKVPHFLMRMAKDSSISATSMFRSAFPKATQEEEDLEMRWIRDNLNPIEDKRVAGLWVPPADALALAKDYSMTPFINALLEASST

[2] = biological target: T2, Bqt4NTD R33A (S. pombe, UniProt O60158 2-140, R33A); experiment: as above; settings: both partners purified
T2 construct: Bqt4, S. pombe, residues 2-140; also called Bqt4 (R33A); source: E. coli BL21(DE3), purified (Ni-NTA, on-beads Ulp1 digestion, Superdex200); not shown: His6, N-terminal, cleaved; SUMO, N-terminal, cleaved
T2 sequence (looked up): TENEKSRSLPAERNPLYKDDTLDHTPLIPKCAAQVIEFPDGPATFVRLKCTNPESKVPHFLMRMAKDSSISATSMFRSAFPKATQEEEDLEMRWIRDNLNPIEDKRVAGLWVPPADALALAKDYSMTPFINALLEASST

[3] = biological target: T3, Bqt4NTD R33A, O60158; experiment: ITC; settings: chain shown with the change;; parent: 11.4 ± 1.2
T3 chain: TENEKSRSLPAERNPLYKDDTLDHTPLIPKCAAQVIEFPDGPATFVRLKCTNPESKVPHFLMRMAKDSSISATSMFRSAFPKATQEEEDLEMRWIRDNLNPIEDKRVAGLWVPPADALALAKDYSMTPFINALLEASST

[4] = biological target: T4, Bqt4_(2–140), N-terminal domain of Bqt4 (S. pombe, UniProt O60158 2-140); experiment: ITC
T4 chain: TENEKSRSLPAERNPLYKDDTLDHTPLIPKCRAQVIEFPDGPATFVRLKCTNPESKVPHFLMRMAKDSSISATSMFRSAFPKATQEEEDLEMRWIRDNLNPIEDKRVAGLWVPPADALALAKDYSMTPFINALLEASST

[5] = biological target: T5, Bqt4NTD D90R (S. pombe, UniProt O60158 2-140, D90 into arginine); experiment: ITC; ITC200; peptide (Rap1 479-527 at 1000–1500 μM) titrated into Bqt4 2-140 (100–150 μM), 20°C, 20 mM Tris–HCl pH 8.0, 150 mM NaCl; one binding site model; two independent experiments; settings: both partners purified
T5 construct: Bqt4, S. pombe, residues 2-140; also called Bqt4^D90 substituted into arginine; source: E. coli BL21(DE3), purified (Ni-NTA, on-beads Ulp1 digestion, Superdex200); not shown: His6, N-terminal, cleaved; SUMO, N-terminal, cleaved
T5 sequence (looked up): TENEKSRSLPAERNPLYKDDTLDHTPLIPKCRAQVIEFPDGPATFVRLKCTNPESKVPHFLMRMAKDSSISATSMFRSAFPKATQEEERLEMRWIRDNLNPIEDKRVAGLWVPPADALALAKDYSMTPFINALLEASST

[6] = biological target: T6, Bqt4NTD D90R, O60158; experiment: ITC; settings: chain shown with the change;; parent: 11.4 ± 1.2
T6 chain: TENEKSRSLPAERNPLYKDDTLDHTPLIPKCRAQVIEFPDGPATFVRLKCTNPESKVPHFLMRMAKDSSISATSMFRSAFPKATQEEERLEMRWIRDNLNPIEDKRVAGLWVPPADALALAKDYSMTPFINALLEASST

[7] = biological target: T1, Bqt4_(2–140), N-terminal domain of Bqt4; experiment: fluorescence polarisation; 100 nM FITC-labeled Lem2BBM with Bqt4NTD from 20 nM to 50 μM; 25 mM Tris–HCl pH 8.0, 150 mM NaCl, 10% glycerol; 25°C; settings: both partners purified
[8] = biological target: T1, Bqt4_(2–140), N-terminal domain of Bqt4; experiment: pull-down; 30 μg GST-tagged Rap1 and 20 μg purified Bqt4 on glutathione-Sepharose 4B beads, 25 mM Tris pH 8.0, 100 mM NaCl, 10% glycerol, 4°C, 40 min; SDS-PAGE; settings: both partners purified
[9] = biological target: T7, Bqt4_(2–180) (S. pombe, UniProt O60158 2-180); experiment: as above; settings: both partners purified
T7 construct: Bqt4, S. pombe, residues 2-180; also called N-terminal region of Bqt4; source: E. coli BL21(DE3), purified (Ni-NTA, on-beads Ulp1 digestion, Superdex200); not shown: His6, N-terminal, cleaved; SUMO, N-terminal, cleaved
T7 sequence (looked up): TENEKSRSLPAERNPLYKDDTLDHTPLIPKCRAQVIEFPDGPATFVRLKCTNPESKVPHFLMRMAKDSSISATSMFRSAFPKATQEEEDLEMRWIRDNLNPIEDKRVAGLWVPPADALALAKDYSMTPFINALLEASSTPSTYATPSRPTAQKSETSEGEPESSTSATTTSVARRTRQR

[10] = biological target: T8, SUMO_(21–92)-Bqt4_(8–140) fusion protein (S. pombe, UniProt O60158 8-140); experiment: crystal structure; Bqt4 construct and peptide mixed at a molar ratio of 1:1.5; molecular replacement; settings: both partners purified
T8 construct: Bqt4, S. pombe, residues 8-140; crystallisation fusion; also called SUMO-Bqt4NTD; Sumo-fused Bqt4_(8–140); not shown: SUMO (residues 21-92), N-terminal, kept
T8 sequence (looked up): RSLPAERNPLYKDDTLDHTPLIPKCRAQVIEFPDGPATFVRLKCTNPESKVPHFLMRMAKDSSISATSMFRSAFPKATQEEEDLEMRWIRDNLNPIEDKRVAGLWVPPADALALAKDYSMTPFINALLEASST

B1: Rap1_(479–527) S497E (domain or fragment, S. pombe, UniProt Q96TL7 479-527, looked up)
chain: EIPLLSDYSDSENISEKSEDDEEAFEKQVTSSYSSPIKVKSQGKSSKGS
notes: phosphomimetic; also called Rap1^S497E; source: E. coli BL21(DE3), purified (glutathione-Sepharose 4B, on-beads 3C digestion, Superdex75); not shown: GST, N-terminal, cleaved
B1 was tested, and the binding result [1] was “binds”, the binding result [2] was “binds” and the Kd [3] was 24.1 µM. For the same binder, the Kd [4] was 2.6 µM.

B2: Rap1_(479–527) S513E (domain or fragment, S. pombe, UniProt Q96TL7 479-527, looked up)
chain: EIPLLSDYSDSENISEKSSDDEEAFEKQVTSSYSEPIKVKSQGKSSKGS
notes: phosphomimetic; also called Rap1^S513E; source: E. coli BL21(DE3), purified (glutathione-Sepharose 4B, on-beads 3C digestion, Superdex75); not shown: GST, N-terminal, cleaved
In the case of B2, the “fold decrease in binding affinity against wild-type Rap1” value [1] is reported as 5 fold, the binding result [5] is reported as “binds” and the Kd [6] is reported as 21.2 µM. It also gave a Kd [4] of 57.8 µM.

B3: FITC-labeled Lem2BBM (peptide, UniProt Q10109 261-279, looked up)
chain: SAEEDDELFQNYVLQQTRK
modifications: also: FITC label, position not given here
notes: also called fluorescent FITC-labeled Lem2BBM; source: E. coli BL21(DE3), purified; labeled with EZLabel Protein FITC Labeling Kit; not shown: GST, N-terminal, cleaved
Binder B3 has a Kd [7] of 0.61 µM.

B4: GST-tagged Rap1_(490–513) (peptide, UniProt Q96TL7 490-513, looked up)
chain: ENISEKSSDDEEAFEKQVTSSYSS
notes: also called GST-Rap1BBM; source: E. coli BL21(DE3); not shown: GST, N-terminal, kept
B4: binds [8]; binds [9].

B5: Rap1_(498–512) (peptide)
peptide: GPLDDEEAFEKQVTSSYS
notes: three extra residues left at the N-terminus after removal of GST by 3C protease; also called Rap1BBM (in the crystal); source: E. coli BL21(DE3), purified (glutathione-Sepharose 4B, on-beads 3C digestion, Superdex75); not shown: GST, N-terminal, cleaved
B5: binds [10].

Source: PMC6379675, “Structural insights into chromosome attachment to the nuclear envelope by an inner nuclear membrane protein Bqt4 in fission yeast” (Nucleic Acids Research, 2018)
